IntAct's records for PubMed 20577264

B1: G2 and S phase-expressed protein 1 (Homo sapiens), Q9NYZ3 (parent)
chain: MEGGGGRDEPSACRAGDVNMDDPKKEDILLLADEKFDFDLSLSSSSANEDDEVFFGPFGHKERCIAASLELNNPVPEQPPLPTSESPFAWSPLAGEKFVEVYKEAHLLALHIESSSRNQAAQAAKPEDPRSQGVERFIQESKLKINLFEKEKEMKKSPTSLKRETYYLSDSPLLGPPVGEPRLLASSPALPSSGAQARLTRAPGPPHSAHALPRESCTAHAASQAATQRKPGTKLLLPRAASVRGRSIPGAAEKPKKEIPASPSRTKIPAEKESHRDVLPDKPAPGAVNVPAAGSHLGQGKRAIPVPNKLGLKKTLLKAPGSTSNLARKSSSGPVWSGASSACTSPAVGKAKSSEFASIPANSSRPLSNISKSGRMGPAMLRPALPAGPVGASSWQAKRVDVSELAAEQLTAPPSASPTQPQTPEGGGQWLNSSCAWSESSQLNKTRSIRRRDSCLNSKTKVMPTPTNQFKIPKFSIGDSPDSSTPKLSRAQRPQSCTSVGRVTVHSTPVRRSSGPAPQSLLSAWRVSALPTPASRRCSGLPPMTPKTMPRAVGSPLCVPARRRSSEPRKNSAMRTEPTRESNRKTDSRLVDVSPDRGSPPSRVPQALNFSPEESDSTFSKSTATEVAREEAKPGGDAAPSEALLVDIKLEPLAVTPDAASQPLIDLPLIDFCDTPEAHVAVGSESRPLIDLMTNTPDMNKNVAKPSPVVGQLIDLSSPLIQLSPEADKENVDSPLLKF

Variants of: B1
Conditions: with plk1_human PLK1, P53350
Chain of plk1_human PLK1, P53350 (P53350 whole entry): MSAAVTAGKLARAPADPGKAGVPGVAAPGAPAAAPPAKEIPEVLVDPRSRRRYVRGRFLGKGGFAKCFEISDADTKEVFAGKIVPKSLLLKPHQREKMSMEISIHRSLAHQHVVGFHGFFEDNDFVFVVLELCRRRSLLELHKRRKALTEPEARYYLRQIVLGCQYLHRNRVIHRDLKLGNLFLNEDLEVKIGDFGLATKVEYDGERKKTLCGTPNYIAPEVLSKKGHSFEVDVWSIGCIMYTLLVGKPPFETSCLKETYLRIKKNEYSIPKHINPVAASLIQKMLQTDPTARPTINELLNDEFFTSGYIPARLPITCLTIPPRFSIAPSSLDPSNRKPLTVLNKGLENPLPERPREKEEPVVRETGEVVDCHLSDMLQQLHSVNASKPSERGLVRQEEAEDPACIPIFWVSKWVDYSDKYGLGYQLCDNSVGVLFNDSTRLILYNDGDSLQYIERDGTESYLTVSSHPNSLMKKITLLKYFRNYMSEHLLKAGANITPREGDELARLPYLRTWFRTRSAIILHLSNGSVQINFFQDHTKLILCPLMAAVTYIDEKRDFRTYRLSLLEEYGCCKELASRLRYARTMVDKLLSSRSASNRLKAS
In the case of S242A, the “effect of a mutation on the interaction” value is reported as “disrupting interaction”.

Variants of: B1
Conditions: with plk1_human PLK1, P53350
Remark: another data set of the same source
For S454A, the “effect of a mutation on the interaction” value was “disrupting interaction”.
